# The RNAGym collection of RNA variant scans (doi:10.7554/elife.80360)
# B1: Hairpin Ribozyme (parent)
# chain: GUCCUCUUUCACGUGCGCGUGAAAGAGAGAAGUGAACCAGAGAAACACACGUUGUGGUAUAUUACCUGGUA
# Variants of: B1
# Assay: self-cleavage, relative activity (ratio to wild type); higher = more cleavage; co-transcriptional
row,Variant,self-cleavage
1,U9G G69C,0.299
2,U9G C66A,0.279
3,U9G A23U,0.482
4,U9G A23C,0.589
5,C10U C66G,0.19
6,C10U C66U,0.43
7,U9G G15C,0.893
8,U9G G15U,0.894
9,C10U U33A,0.169
10,C10G A71C,1.2
11,U9A G68A,0.223
12,A11C A36U,0.491
13,A11C A36G,1.07
14,C10U C16G,0.564
15,C10U C16A,0.887
16,U9C A30C,0.0706
17,C10U A26U,0.624
18,U9C A59C,0.142
19,U9C A59U,0.146
20,C10U A30C,0.146
21,C10A A45G,0.138
22,A11C,0.849
23,A11C A26C,0.41
24,A11C A26U,0.482

row,Variant,self-cleavage
1,C10G A59U,0.16
2,C10U G17C,0.58
3,C10U G17A,0.808
4,C10A C38A,0.171
5,C10A C38G,0.196
6,U9C A22G,1.04
7,U9C A22C,0.799
8,U9G C38A,0.243
9,U9G C38U,0.41
10,U9C G27C,0.109
11,U9C G54A,0.501
12,U9C G54C,0.413
13,A11C C38U,0.515
14,U9C C10U,0.527
15,U9C C10A,0.696
16,U9A U14C,0.62
17,U9A U14G,0.74
18,C10A A49C,0.223
19,C10U U62C,0.281
20,C10A A35G,0.63
21,C10A A35U,0.56
22,C10G G27C,0.147
23,C10G G27A,0.405
24,C10U C12U,0.652

row,Variant,self-cleavage
1,A11C A28U,0.603
2,C10G A24C,0.641
3,C10A A22C,0.636
4,C10U A64C,0.213
5,U9C A11U,0.411
6,U9G A61G,0.257
7,U9C U62G,0.199
8,U9G G56U,0.124
9,A11C C18A,0.768
10,U9A G54C,0.3
11,C10U U14G,0.698
12,C10U U14C,0.671
13,C10U A61G,0.201
14,C10U A61C,0.311
15,C10U G19C,0.702
16,C10U G19A,0.588
17,U9C U60G,0.615
18,A11C A24U,0.615
19,A11C A24C,0.709
20,C10A A64U,0.121
21,C10G C48A,0.151
22,C10U G40A,0.308
23,C10G C65G,0.246
24,C10G U70G,0.611

row,Variant,self-cleavage
1,C10A G13U,0.425
2,C10A U33C,0.174
3,A11C A22G,0.966
4,C10A G15U,0.871
5,U9G U60G,0.322
6,U9C U63A,0.131
7,U9A U62G,0.122
8,U9C G21C,0.479
9,U9C G21A,0.5
10,C10G A36G,0.778
11,C10G A64C,0.169
12,U9C U55G,0.266
13,C10A G69C,0.241
14,C10A G69A,0.317
15,U9C G17U,0.709
16,U9G A22G,0.79
17,U9C A44U,0.247
18,C10G U67A,0.191
19,C10G U67C,0.172
20,U9C G57C,0.0619
21,C10A G21U,0.939
22,C10U U67G,0.311
23,C10U U67A,0.137
24,U9C C46A,0.122

row,Variant,self-cleavage
1,U9C A71U,0.68
2,U9G A35G,0.546
3,U9G A28U,0.46
4,C10A A39U,0.262
5,C10A A39G,0.224
6,U9G C65G,0.207
7,U9C G19A,0.704
8,U9G G40C,0.104
9,U9C C65U,0.258
10,U9A U52G,0.472
11,C10A G56A,0.133
12,C10A G56C,0.11
13,U9G A47G,0.231
14,C10G A28U,0.586
15,C10G A28G,0.954
16,A11C C46G,0.204
17,A11C C46U,0.255
18,C10A A59U,0.234
19,U9G U67C,0.188
20,U9C A41G,0.706
21,C10U A31G,0.812
22,C10U A31U,0.103
23,U9A G56C,0.0939
24,U9G A71C,1.2

row,Variant,self-cleavage
1,U9G A71G,0.779
2,U9G A71U,0.601
3,C10U C37U,0.39
4,C10G A44G,0.108
5,C10G A44C,0.126
6,C10G A44U,0.133
7,U9G U20G,0.333
8,C10G G69A,0.299
9,C10G G69U,0.142
10,C10U A59G,0.206
11,C10U A59C,0.227
12,C10A U53G,0.514
13,C10G U60A,0.608
14,U9A U60G,0.484
15,U9C A61U,0.0555
16,C10A A26U,0.461
17,C10A A26C,0.297
18,U9C G32U,0.0498
19,A11C A49G,0.629
20,A11C A49U,0.197
21,C10A G68C,0.114
22,U9C A36G,0.882
23,C10G G51A,0.755
24,C10G G51U,0.699

row,Variant,self-cleavage
1,C10G C37A,0.22
2,C10U G51A,0.881
3,C10U G51U,0.888
4,U9G U14G,0.597
5,C10G A61U,0.2
6,C10G A61C,0.255
7,U9G C16G,0.431
8,C10U A22C,0.631
9,C10G A22U,0.661
10,C10U A71G,0.811
11,A11C A45U,0.128
12,A11C A45C,0.0923
13,C10U A11G,0.734
14,C10U A41U,0.817
15,C10U A41C,1.03
16,U9G U63A,0.102
17,C10U G21A,0.937
18,C10U G21C,0.77
19,C10G U53C,0.59
20,C10G U53A,0.663
21,C10A C16U,0.762
22,A11C A41U,1.29
23,A11C A41C,1.25
